Experimental findings from patent publication US20260009051A1 are described below.

Common to all, as to assay: FACS, mAb 5 µg/ml, CD20 variant on transfected HEK293 cells
The target in assay [1] is E174Y.
For assay [2], the target named is S177A.
Assay [3] has as its target A170S.
The target of assay [4] is A170P.
For assay [5], the target named is E174D.
Assay [6] deals with P172A.
For assay [7], the target named is S173A.
The target of assay [8] is K175F.
In assay [9] the target is WT.
In assay [10] the target is E168A.
E168A, sequence (CD20, as listed by the source E168A E168A limits assumed): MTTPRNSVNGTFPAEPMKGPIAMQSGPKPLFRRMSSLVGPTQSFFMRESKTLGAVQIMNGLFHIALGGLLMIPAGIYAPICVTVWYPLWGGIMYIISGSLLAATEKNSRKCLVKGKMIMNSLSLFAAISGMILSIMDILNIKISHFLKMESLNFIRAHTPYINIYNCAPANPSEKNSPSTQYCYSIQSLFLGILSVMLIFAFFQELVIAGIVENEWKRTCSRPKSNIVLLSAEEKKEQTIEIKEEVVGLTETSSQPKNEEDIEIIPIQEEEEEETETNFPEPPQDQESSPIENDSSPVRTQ
Assay [11] addresses N171H.
Assay [12] concerns the target N176A.
The target in assay [13] is N171A.
N171A, sequence (CD20, as listed by the source N171A N171A limits assumed): as the sequence (CD20, as listed by the source E168A E168A limits assumed) above, with A168E, N171A counted along it
The target of assay [14] is K175R.
K175R, sequence (CD20, as listed by the source K175R K175R limits assumed): as the sequence (CD20, as listed by the source E168A E168A limits assumed) above, with A168E, K175R counted along it

A170S, sequence (CD20, as listed by the source A170S A170S limits assumed): as the sequence (CD20, as listed by the source E168A E168A limits assumed) above, with A168E, A170S counted along it
E174Y, sequence (CD20, as listed by the source E174Y E174Y limits assumed): as the sequence (CD20, as listed by the source E168A E168A limits assumed) above, with A168E, E174Y counted along it
K175F, sequence (CD20, as listed by the source K175F K175F limits assumed): as the sequence (CD20, as listed by the source E168A E168A limits assumed) above, with A168E, K175F counted along it
P172A, sequence (CD20, as listed by the source P172A P172A limits assumed): as the sequence (CD20, as listed by the source E168A E168A limits assumed) above, with A168E, P172A counted along it
E174D, sequence (CD20, as listed by the source E174D E174D limits assumed): as the sequence (CD20, as listed by the source E168A E168A limits assumed) above, with A168E, E174D counted along it
N171H, sequence (CD20, as listed by the source N171H N171H limits assumed): as the sequence (CD20, as listed by the source E168A E168A limits assumed) above, with A168E, N171H counted along it
A170P, sequence (CD20, as listed by the source A170P A170P limits assumed): as the sequence (CD20, as listed by the source E168A E168A limits assumed) above, with A168E, A170P counted along it
S177A, sequence (CD20, as listed by the source S177A S177A limits assumed): as the sequence (CD20, as listed by the source E168A E168A limits assumed) above, with A168E, S177A counted along it
WT, sequence (CD20, as listed by the source limits assumed): as the sequence (CD20, as listed by the source E168A E168A limits assumed) above, with A168E counted along it
N176A, sequence (CD20, as listed by the source N176A N176A limits assumed): as the sequence (CD20, as listed by the source E168A E168A limits assumed) above, with A168E, N176A counted along it
S173A, sequence (CD20, as listed by the source S173A S173A limits assumed): as the sequence (CD20, as listed by the source E168A E168A limits assumed) above, with A168E, S173A counted along it

On to B1 (antibody), for which the % of best binder in [1] turned out to be 51%; in assay [2], 40%; in assay [3] it was 55%; in assay [4] it was 38%; in [5], 57%; in assay [6], 31%. The % of best binder in assay [7] came to 55%; in assay [8] it was 46%; in [9], 59%; in assay [10], 48%; in [11] it was 58%; in [12], 2%. The % of best binder in assay [13] came out at 46%; in assay [14] it was 53%.

Take m7D8 (antibody): the % of best binder in assay [1] was determined as 80%; in [2] it was 68%; in assay [3], 60%; in [4] it was 62%; in [5], 67%; in assay [6], 69%. Besides, the % of best binder was 73% in assay [7]; 71% in [8]; 77% in assay [9]; 66% in [10]; 86% in assay [11]; 67% in assay [12]. Moreover, the % of best binder in assay [13] amounted to 82%; in [14], 71%.

For the substance m11B8 (antibody), the % of best binder in [1] was determined as 13%; in assay [2], 79%; in [3], 84%; in [4], 41%; in [5] it was 9%; in assay [6], 96%. Further, the % of best binder stood at 98% in [7]; 94% in assay [8]; 82% in [9]; 83% in assay [10]; 100% in assay [11]; 88% in [12]. The results for the % of best binder in assay [13] and in assay [14] were 100% and 89%, respectively.

Turning to mRTX (antibody), the % of best binder in assay [1] is 29%; in [2] it was 63%; in [3], 60%; in assay [4], 42%; in assay [5], 52%; in [6], 25%. For the same substance, the % of best binder came to 2% in assay [7]; 67% in [8]; 77% in assay [9]; 52% in [10]; 5% in [11]; 65% in assay [12]. For the same substance, the % of best binder was found to be 3% in assay [13] and 65% in assay [14].
